Test results reported in patent US20150025225A1 (SHIONOGI, published 2015).
Substitutions are numbered along the chain they refer to.

Key:
[1] = target: T1, human EL-411-459 fragment (human); assay: sandwich ELISA: 12B10 (5 ug/mL) captured on anti-mouse IgG-Fc plate, serial dilutions of fragment lysate, detection with biotin anti-C2-tag Fab and HRP-streptavidin, A450
T1 construct: Used as HEK293 lysate
T1 chain: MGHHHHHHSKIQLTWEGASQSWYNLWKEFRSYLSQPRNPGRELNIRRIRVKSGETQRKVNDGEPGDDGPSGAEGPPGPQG
Protocol: (§1) Assay buffer containing 15 μl of 12B10 antibody (5 μg/mL) was added to immobilized plate of anti-mouse IgG-Fc antibody and incubated for 2 hr. […] After washing the wells three times with 90 μl of washing buffer, 15 μL of assay buffer containing biotin-labeled anti-C2-tag (Fab) antibody and HRP-labeled Streptavidin (Thermo scientific) were added to the wells and incubated at room temperature for 1 hr. After washing the wells three times with 90 μl of washing buffer, 15 μL of TMB+-Substrate-Chromogen (DAKO) was added and incubated at room temperature for 30 min. The reaction was stopped with adding 15 μL of 0.05M H₂SO₄ and then measured absorbance 450 nm.

[2] = target: T2, human EL-411-500 fragment (human); assay: as above
T2 construct: Used as HEK293 lysate
T2 chain: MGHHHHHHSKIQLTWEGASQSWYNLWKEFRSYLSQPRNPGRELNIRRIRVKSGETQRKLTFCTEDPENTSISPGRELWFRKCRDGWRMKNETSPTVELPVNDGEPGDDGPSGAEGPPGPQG
Protocol: as §1

[3] = target: T3, cynomolgus monkey EL-C2 tag (cynomolgus monkey, UniProt Q9Y5X9 21-500 (human entry), limits assumed); assay: ELISA-type titration, A450 against antibody concentration; protocol not described in the text
T3 construct: used as heparin extract of transfected HEK293F cells; also called cynomolgus EL
T3 chain: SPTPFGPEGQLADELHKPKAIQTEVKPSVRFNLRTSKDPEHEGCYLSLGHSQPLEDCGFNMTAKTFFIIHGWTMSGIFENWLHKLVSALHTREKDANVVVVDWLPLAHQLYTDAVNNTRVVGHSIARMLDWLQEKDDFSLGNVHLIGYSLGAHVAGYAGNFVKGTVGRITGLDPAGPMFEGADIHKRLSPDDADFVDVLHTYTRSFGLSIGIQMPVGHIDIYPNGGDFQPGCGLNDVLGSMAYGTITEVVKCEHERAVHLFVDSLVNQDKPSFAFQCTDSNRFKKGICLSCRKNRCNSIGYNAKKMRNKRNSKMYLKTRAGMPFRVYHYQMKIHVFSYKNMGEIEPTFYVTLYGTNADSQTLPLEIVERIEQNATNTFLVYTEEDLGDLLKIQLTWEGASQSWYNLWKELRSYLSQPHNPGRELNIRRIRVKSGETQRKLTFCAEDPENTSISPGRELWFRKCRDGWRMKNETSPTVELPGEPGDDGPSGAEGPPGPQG

[4] = target: T4, Baboon EL-C2 tag (baboon, UniProt Q9Y5X9 21-500 (human entry), limits assumed); assay: as above
T4 construct: used as heparin extract of transfected HEK293F cells; also called baboon EL heparin extract
T4 chain: T3 chain with A12E, G141E

[5] = target: T5, mouse EL-C2 tag (mouse, UniProt Q9WVG5 21-500); assay: as above
T5 construct: used as heparin extract of transfected HEK293F cells
T5 sequence: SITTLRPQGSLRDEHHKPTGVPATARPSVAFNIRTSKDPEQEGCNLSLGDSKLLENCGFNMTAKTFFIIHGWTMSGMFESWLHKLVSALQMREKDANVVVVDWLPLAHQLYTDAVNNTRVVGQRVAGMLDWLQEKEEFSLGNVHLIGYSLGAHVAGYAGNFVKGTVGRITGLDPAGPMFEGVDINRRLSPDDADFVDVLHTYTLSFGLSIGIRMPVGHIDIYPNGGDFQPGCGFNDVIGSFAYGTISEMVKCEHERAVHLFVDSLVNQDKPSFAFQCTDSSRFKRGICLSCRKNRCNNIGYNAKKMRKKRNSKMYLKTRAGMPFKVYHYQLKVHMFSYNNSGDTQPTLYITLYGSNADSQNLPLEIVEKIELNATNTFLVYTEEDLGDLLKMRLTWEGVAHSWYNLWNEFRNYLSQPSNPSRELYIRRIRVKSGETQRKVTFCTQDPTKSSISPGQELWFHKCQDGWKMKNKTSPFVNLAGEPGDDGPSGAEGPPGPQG

B1: 12B10 antibody (antibody, IgG2a, V domains shown)
VH: QVTLKESGPGILKPSQTLSLTCSFSGFSLSTSGMGVGWIRQPSGKGLEWLAHIWWNDEKYYNPSLKSQLTISKDTSRNQVFLKITSVDTADTATYYCARSYDGSPFPSWGQGTLVTVSA
VL: DIQMTQSPSSLSASLGGKVTITCKASQDINKYIAWFQHKPGKGPRLLMAYPFTLQPGIPSRFSGNGSGRDYSFSISNLEPEDIATYYCLQYDNLLWTFGGGTRLEIK
Question: What does the source list for B1?
Answer: binding result [1]: binds; binding result [2]: binds; EC50 (read off the curve) [3]: ~0.007 µg/mL; EC50 (read off the curve) [4]: ~0.02 µg/mL; binding result [5]: no binding
